From patent US20060235199A1, “Reagent for amplifying amyloid fibrosis of amyloid ss-protein” (priority 2003, published 2006) come the findings set out here.

Series [1] addresses T1, Aβ (10-35) formed into amyloid fibrils (nucleus) (Homo sapiens, UniProt P05067).
T1 construct: peptide [Aβ (10-35)] consisting of 10 to 35 residues of amyloid β peptide; made in house; host or cells: chemical synthesis (Fmoc solid phase method)
The series is described as follows: Amplification, with the artificial peptide, of formation of fibrils of Aβ (10-35) formed into fibrils, monitored with ThT. The series is classed as biochemical. The settings on record: peptide 200 μM, Aβ (10-35) nucleus 10 μM, room temperature; for increase in ThT fluorescent intensity in the presence of the nucleus: after 1 day. As for the experimental part: The amplification of formation of fibrils of Aβ (10-35) formed into amyloid fibrils was attempted by using each of the artificial peptides synthesized in Example 1. A small amount of Aβ (10-35) previously formed into fibrils under the condition in (1-2) above was added to a solution of the artificial peptide, and the amplification of formation of fibrils was monitored with ThT.
Starting solution used: [peptide]=2 mM solution in TFE
Concentrations: [peptide]=200 μM, [Aβ (10-35) (nucleus)]=10 μM • (20 mM Tris-HCl buffer (pH 7.4))
(§1) Aβ (10-35) (nucleus) was homogenized by sonication for 1 hour before dilution.
Temperature: room temperature
Concentration: [peptide]=5 μM, [ThT]=6 μM • (20 mM Tris-HCl buffer (pH 7.4))
Stirring conditions: The whole volume of the reaction mixture was sufficiently stirred with a Pasteur pipette before sampling, and then sufficiently stirred in a cell with a Pasteur pipette.
Excitation wavelength: 440 nm, detection wavelength: 482 nm.

Series [2] is described as follows: Measurement of the secondary structure of each peptide by a CD spectrum. The settings on record: peptide 100 μM, 20 mM Tris-HCl buffer (pH 7.4); for secondary structure by CD spectrum: CD at 25° C.; for CD spectral change with time: incubated at ordinary temperatures. The series is classed as physicochemical. As for the experimental part: The peptide (10-4F), (10-3L), (10-3F), (10-3A), Aβ (14-23) or Aβ (10-35) synthesized in Example 1, which was contained alone in an aqueous solution, was evaluated for its ability to form amyloid fibrils. The secondary structure was examined using a CD spectrum, and the ability to form amyloid fibrils was evaluated with dye thioflavin T (ThT) binding specifically to amyloid fibrils to emit fluorescence, under a transmission electron microscope (TEM).
Solutions of the respective synthesized peptides, 2 mM, in trifluoroethanol (TFE) were prepared and used as stock solutions respectively. Each stock solution was diluted to a final peptide concentration of 100 μM with 20 mM Tris-HCl buffer (pH 7.4), then incubated at ordinary temperatures, and measured for CD spectrum at 25° C. (FIG. 1).

Series [3] has as its target T1, Aβ (10-35) formed into amyloid fibrils (nucleus). The series is described as follows: Amplification of fibrils of Aβ (10-35) formed into amyloid fibrils, measurement using a plate reader. In kind it is biochemical. The settings on record: high to low; for rank of difference in fluorescence intensity between nucleus added and not added (ability to amplify fibrils): after completion of fluorescent intensity change; for rank of increase in fluorescent intensity among peptides to which the nucleus had been added: with Aβ (10-35) nucleus. On the procedure: A test for the amplification of fibrils of Aβ (10-35) formed into amyloid fibrils by using the artificial peptide of the present invention in Example 2 was attempted using a plate reader.
Starting solution used: [peptide]=5 mM solution in DMSO
Concentrations: [peptide]=20 μM, [Aβ (10-35) (nucleus)]=2.5 μM • (20 mM Tris-HCl buffer (pH 7.4))
as §1
Concentrations: [peptide]=18 μM, [ThT]=25 μM • (20 mM Tris-HCl buffer (pH 7.4))
Stirring conditions: The whole volume of the reaction mixture was stirred 3 times for 2 seconds with a vortex and then (100 μl×2) was stirred with a micropipette in a well before measurement.
Excitation wavelength: 440 nm, detection wavelength: 490 nm.

A short description of series [4]: Evaluation, with ThT, of the ability of the artificial peptide used alone to form amyloid fibrils. The settings on record: peptide 200 μM alone; for time required to finish formation of fibrils at 40° C. compared with ordinary temperatures: incubation at 40° C.; for time having elapsed until the increase in fluorescent intensity was finished: incubation at room temperature. As for the experimental part:
The peptide (10-4F), (10-3L), (10-3F), (10-3A), Aβ (14-23) or Aβ (10-35) synthesized in Example 1, which was contained alone in an aqueous solution, was evaluated for its ability to form amyloid fibrils. The secondary structure was examined using a CD spectrum, and the ability to form amyloid fibrils was evaluated with dye thioflavin T (ThT) binding specifically to amyloid fibrils to emit fluorescence, under a transmission electron microscope (TEM). The ability of each artificial peptide obtained in Example 1 to form amyloid fibrils when used alone was evaluated using ThT. Starting solution used: [peptide]=2 mM solution in TFE Concentration: [peptide]=200 μM in 20 mM Tris-HCl buffer (pH 7.4) Temperature: room temperature or 40° C. Concentrations: [peptide]=5 μM, [ThT]=6 μM (20 mM Tris-HCl buffer (pH 7.4)) Temperature: room temperature Stirring conditions: The whole volume of the reaction mixture was sufficiently stirred with a Pasteur pipette before sampling, and then sufficiently stirred in a cell with a Pasteur pipette. Excitation wavelength: 440 nm, detection wavelength: 482 nm. The formation of fibrils was slow at ordinary temperatures to make it difficult to monitor the change with time, so the ability of each artificial peptide used alone to form fibrils was then evaluated at an elevated temperature of 40° C. estimated to accelerate formation of fibrils.

For “Ac-Lys-Gln-Lys-Leu-Leu-Ala-Leu-Leu-Glu-Glu-NH2 (Ac-KQKLLALLEE-NH2) [10-3A]”, the “increase in ThT fluorescent intensity in the presence of the nucleus” value (from here on “increase in ThT fluorescent intensity”) in series [1] is “no increase in fluorescent intensity”. In series [2], the “secondary structure by CD spectrum” value is “spectra unique to random coil state” and the “CD spectral change with time” value was “no spectral change with time”. In addition, in series [3], the “rank of difference in fluorescence intensity between nucleus added and not added (ability to amplify fibrils)” value was “order of 10-3L, 10-4F, 10-3F, and 10-3A”; the “rank of increase in fluorescent intensity among peptides to which the nucleus had been added” value (“rank of increase” below) was “order of 10-4F, 10-3L, 10-3F, and 10-3A”.

As to “Ac-Lys-Gln-Lys-Leu-Leu-Leu-Leu-Leu-Glu-Glu-NH2 (Ac-KQKLLLLLEE-NH2) [10-3L]”, in series [1], the “fluorescent intensity with the nucleus relative to that in the absence of the nucleus” value was “twice as high” and the “increase in ThT fluorescent intensity” value is recorded as “significant increase in fluorescent intensity”. In series [4], the “time required to finish formation of fibrils at 40° C. compared with ordinary temperatures” value is given as “significantly shortened” and the “time having elapsed until the increase in fluorescent intensity was finished” value (shortened to “time having elapsed until the increase”) was found to be 3 days. Besides, in series [2], the “secondary structure by CD spectrum” value is recorded as “spectra unique to β-sheet structure” and the “CD spectral change with time” value is “increased signals with time”. Further, in series [3], the “rank of difference in fluorescence intensity between nucleus added and not added (ability to amplify fibrils)” value is reported as “highest”; the “rank of increase” value was “order of 10-4F, 10-3L, 10-3F, and 10-3A”.

As for “Ac-Lys-Gln-Lys-Leu-Leu-Leu-Phe-Leu-Glu-Glu-NH2 (Ac-KQKLLLFLEE-NH2) [10-4F]”, the “increase in ThT fluorescent intensity” value in series [1] is “significant increase in fluorescent intensity”. Also, in series [4], the “time required to finish formation of fibrils at 40° C. compared with ordinary temperatures” value was “hardly changed” and the “time having elapsed until the increase” value is reported as “about 6 days”. Further, in series [2], the “secondary structure by CD spectrum” value is given as “spectra unique to β-sheet structure” and the “CD spectral change with time” value is “increased signals with time”. Further, in series [3], the “rank of difference in fluorescence intensity between nucleus added and not added (ability to amplify fibrils)” value is “order of 10-3L, 10-4F, 10-3F, and 10-3A”; the “rank of increase” value was “largest increase in fluorescent intensity”.

Take “Ac-Lys-Gln-Lys-Leu-Leu-Phe-Leu-Leu-Glu-Glu-NH2 (Ac-KQKLLFLLEE-NH2) [10-3F]”: the “increase in ThT fluorescent intensity” value in series [1] is “no increase in fluorescent intensity”. Moreover, in series [4], the “time required to finish formation of fibrils at 40° C. compared with ordinary temperatures” value is given as “hardly changed” and the “time having elapsed until the increase” value is recorded as “about 6 days”. Further, in series [2], the “secondary structure by CD spectrum” value is reported as “spectra unique to β-sheet structure” and the “CD spectral change with time” value is given as “increased signals with time”. Besides, in series [3], the “rank of difference in fluorescence intensity between nucleus added and not added (ability to amplify fibrils)” value was “order of 10-3L, 10-4F, 10-3F, and 10-3A”; the “rank of increase” value is “order of 10-4F, 10-3L, 10-3F, and 10-3A”.

As for “Aβ (10-35): peptide consisting of 10 to 35 residues of amyloid β peptide, used as the nucleus of amyloid fibril (YEVHHQKLVFFAEDVGSNKGAIIGLM; Amyloid-beta protein 42; UniProt P05067 681-706, looked up, fragment) [reference compound]”, in series [2], the “secondary structure by CD spectrum” value is “spectra unique to β-sheet structure” and the “CD spectral change with time” value was “increased signals with time”.

In the case of “Aβ (14-23): peptide consisting of 14 to 23 residues of amyloid β peptide (HQKLVFFAED; Amyloid-beta protein 42; UniProt P05067 685-694, looked up, fragment)”, in series [4], the “time required to finish formation of fibrils at 40° C. compared with ordinary temperatures” value is given as “significantly shortened”. Moreover, in series [2], the “secondary structure by CD spectrum” value was “spectra unique to random coil state” and the “CD spectral change with time” value is “no spectral change with time”.
